Data: patent US20140343256A1 (TECHNISCHE UNIVERSITAT MUNCHEN, published 2014)
Ends that are not written are not given here. * marks the point of attachment. Palmitoyl = CCCCCCCCCCCCCCCC(=O)*

Key:
[1] = biological target: recombinant TLR2ECD-Fc fusion protein (human IgGFc fused mouse TLR2ECD protein) (murine; human) (UniProt Q9QUN7); assay: SPR competition: T2EC pre-incubated with T2.5, binding to immobilised P3CSK4
[2] = biological target: T1, N-palmitoyl-S-(2,3-bis(palmitoyloxy)-(2R,S)-propyl)-(R)-cysteinyl-seryl-(lysyl)-3-lysine; assay: SPR, antibody alone over immobilised P3CSK4
T1 construct: Synthetic bacterial lipopeptide analogue and TLR2 agonist, immobilised on the SPR chip; also called P3CSK4; tripalmitoyl-cysteinyl-seryl-(lysyl)3-lysine
T1 peptide: Palmitoyl-C(2,3‑bis(palmitoyloxy)‑(2R,S)‑propyl)SKKKK

Chain of recombinant TLR2ECD-Fc fusion protein (human IgGFc fused mouse TLR2ECD protein) (murine; human) (Q9QUN7 25-587 limits assumed, form in doubt): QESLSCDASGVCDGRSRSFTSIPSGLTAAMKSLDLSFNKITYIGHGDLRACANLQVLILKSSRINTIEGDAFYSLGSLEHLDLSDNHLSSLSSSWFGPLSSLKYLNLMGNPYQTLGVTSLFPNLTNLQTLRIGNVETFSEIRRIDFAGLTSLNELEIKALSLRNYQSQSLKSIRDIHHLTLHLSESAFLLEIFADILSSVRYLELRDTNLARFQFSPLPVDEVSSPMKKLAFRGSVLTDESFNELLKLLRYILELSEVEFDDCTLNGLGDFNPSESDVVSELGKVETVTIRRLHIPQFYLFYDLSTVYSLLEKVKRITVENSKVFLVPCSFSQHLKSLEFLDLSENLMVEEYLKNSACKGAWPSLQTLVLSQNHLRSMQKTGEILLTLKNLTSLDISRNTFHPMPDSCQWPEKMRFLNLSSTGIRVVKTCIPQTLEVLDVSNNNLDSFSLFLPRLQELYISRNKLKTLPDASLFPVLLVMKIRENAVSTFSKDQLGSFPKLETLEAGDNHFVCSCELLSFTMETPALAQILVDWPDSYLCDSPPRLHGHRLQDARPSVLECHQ

B1: murine monoclonal antibody T2.5 (antibody, V domains shown)
VH: QVQLQQSGPELVNPGASVKLSCKASGFTFTTYGINWVKQGPGQGLEWIGWIYPRDGSTNFNENFKDKAALTVDTSSSTAYMELHSLTSEDSAVYFCARLTGGTFLDYWGQGTTLTVSS
VL: DIVLTQSPASLAVSLGQRATISCRASESVEYYGTSLMQWYQQKPGQPPKLLIFGASNVESGVPVRFSGSGSGTDFSLNIHPVEEDDIVMYFCQQSRKLPWTFGGGTKLEIKR
notes: also called mAb T2.5; native T2.5
[1]
  molar excess of T2.5 over T2EC that abrogated the T2EC-P3CSK4 interaction (fold molar excess): 10
  molar ratio (T2.5:T2ECD) required to reduce binding to 50% (molar ratio (T2.5:T2ECD)): 3.3
[2]
  binding result: no binding
